The record followed here is publication PMC9282883 (Nature, 2021).

To fix the notation:
B1: S2X35 IgG1 (antibody, V domains shown)
VH: QVQLVQSGAEVKKPGASVKVSCKASGYTFTNYGISWVRQAPGQGLEWMGWISAYKGNTNYAQKLQGRVTMTTDTSTSTAYMELRSLRSDDTAVYYCARPDYQVLGYDFWIGYYGMDVWGQGTTVIVSS
VL: QSVLTQPPSVSGAPGQRVTISCTGSSSNIGAGYDVHWYQQLPGTAPKLLIYGNTNRPSGVPDRFSGSKSGTSASLAITGLQAEDEADYYCQSYDSSLSGSEVVFGGGTKLTVL
B2: S304 IgG1 (antibody, V domains shown)
VH: EVQLVESGGGLVQPGGSLRLSCAASGFTFSSYDMHWVRQTTGKGLEWVSTIGTAGDTYYPDSVKGRFTISREDAKNSLYLQMNSLRAGDTAVYYCARGDSSGYYYYFDYWGQGTLLTVSS
VL: DIQMTQSPSSLSAAVGDRVTITCRASQSIGSYLNWYQQKPGKAPKLLIYAASSLQSGVPSRFSGSGSGTDFTLTISSLQPEDFAIYYCQQSYVSPTYTFGPGTKVDIK
B3: S2D106 IgG1 (antibody, V domains shown)
VH: EVQLVQSGAEVKKPGSSVKVSCKASGGPFSSSAISWVRQAPGQGLEWMGGIIPMVGTANYAQKFQGRVTITADESTSTAYMELSSLRSEDTAVYYCARDSRYCSGGSCYSVWFDPWGQGTLVTVSS
VL: not shown
B4: S2H97 IgG1 (antibody, V domains shown)
VH: QVRLVQSGAEVKKSGESLKISCKGSGYSFTSYWIGWVRQMPGKGLEWMGIIYPGDSDTRYSPSFQGQVTISADKSISTVYLQWSSLKASDTAMYYCARQWSHYTYDYYYWGQGTLVTISS
VL: QSVLTQPASVSGSPGQSITISCTGISSDVGGYNSVSWYQQHPGKAPKLMIYDVTNRPSGVSNRFSGSKSGNTASLTISGLQAEDEADYYCSSYTSSSTPPYVFGTGTKVSVL
B5: S2E12 IgG1 (antibody, V domains shown)
VH: not shown
VL: DIVLTQTPGTLSLSPGERATLSCRASQSVSSSYLAWYQQKPGQAPRLLIYGASSRATGIPDRFSGSGSGTDFTLTISRLEPEDFAVYYCQQYVGLTGWTFGQGTKVEIK
B6: S2X35 Fab (Fab, V domains shown)
VH: B1 VH
VL: B1 VL
B7: S304 Fab (Fab, V domains shown)
VH: B2 VH
VL: B2 VL
B8: S2D106 Fab (Fab, V domains shown)
VH: B3 VH
VL: not shown
B9: S2H97 Fab (Fab, V domains shown)
VH: B4 VH
VL: B4 VL
B10: S2E12 Fab (Fab, V domains shown)
VH: not shown
VL: B5 VL

One assay addresses T1, SARS-CoV-2 RBD WT (for SPR binding assays) (SARS-CoV-2, Wuhan-Hu-1 (WT), UniProt P0DTC2). The assay is described as follows: cell-based or functional assay.
Take B1: the “IC50, neutralisation of authentic SARS-CoV-2 (SARS-CoV-2-Nluc) on Vero E6 cells” value (“IC50, neutralisation” for short) is 0.179 µg/mL and the “IC90, neutralisation of authentic SARS-CoV-2 (SARS-CoV-2-Nluc) on Vero E6 cells” value (shortened to “IC90, neutralisation”) came out at 0.593 µg/mL. Take B2: the “IC50, neutralisation” value was 14.4 µg/mL. As to B3, the “IC50, neutralisation” value was found to be 0.0068 µg/mL and the “IC90, neutralisation” value was 0.0236 µg/mL.

As for B4, the “IC50, neutralisation” value was found to be 0.749 µg/mL and the “IC90, neutralisation” value came to 3.29 µg/mL. The corresponding values for B5 are 0.0045 µg/mL and 0.014 µg/mL.

For a further assay, the target named is T1, SARS-CoV-2 RBD WT (for SPR binding …). The assay is described as follows: SPR. A general note: SPR reads the build-up and loss of mass on a sensor chip optically.
As to B1, the Kd (as a rule, the constant that tells how readily two partners part at equilibrium) is 0.06 nM. Still for that read-out and setting: the result for B6 reads 0.2 nM; that for B2, 0.4 nM. The same measure, in the same setting: as for B7, the figure is 1 nM. Still for that read-out and setting: the result for B3 reads 0.04 nM; that for B8, 0.05 nM. B4 yielded a Kd of 0.04 nM. For B9, the Kd is 0.04 nM. The same measure, in the same setting: the result for B5 reads 0.7 nM. The molecule B10 had a Kd of 1.7 nM.
